Laboratory results taken from article PMC9483790.

Biological target: endogenous pyruvate kinase M2 (PKM2) (human (endogenous in PLC/PRF/5, SMMC-7721, HCCLM3, Huh7)) (UniProt P14618)
Experiment: cross-linking

Sequence of endogenous pyruvate kinase M2 (PKM2), P14618 1-531 (enzyme; other documents disagree on this pair) (P14618 whole entry): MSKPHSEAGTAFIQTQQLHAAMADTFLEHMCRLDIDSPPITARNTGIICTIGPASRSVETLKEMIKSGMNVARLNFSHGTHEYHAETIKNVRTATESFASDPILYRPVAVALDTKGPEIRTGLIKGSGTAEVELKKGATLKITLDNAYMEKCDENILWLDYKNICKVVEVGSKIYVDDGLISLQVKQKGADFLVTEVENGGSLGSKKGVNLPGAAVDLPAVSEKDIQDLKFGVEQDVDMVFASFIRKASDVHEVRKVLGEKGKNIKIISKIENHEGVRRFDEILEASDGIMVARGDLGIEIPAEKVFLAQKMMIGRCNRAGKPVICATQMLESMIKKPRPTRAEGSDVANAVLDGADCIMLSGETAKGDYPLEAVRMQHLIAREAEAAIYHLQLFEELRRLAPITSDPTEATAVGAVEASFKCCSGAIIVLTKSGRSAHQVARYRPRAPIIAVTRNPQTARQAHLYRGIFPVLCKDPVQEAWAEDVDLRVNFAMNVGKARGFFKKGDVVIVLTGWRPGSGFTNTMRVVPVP

stoichiometry N: 2
Substance: endogenous pyruvate kinase M2 (PKM2), P14618 1-531 (enzyme; other documents disagree on this pair)
